# Source: doi:10.1101/2022.06.09.495492 (2022)
# Columns and labels:
# His-△237 [1] = molecular target: His-△237 (T. vaginalis); experiment: ELISA; G-actin
# His-△237 [2] = molecular target: His-△237 (T. vaginalis); experiment: ELISA; F-actin
binder,measurement,setting,value
GST-Tvactin (natural protein) not shown,Kd,His-△237 [1],9.01 µM
same,Kd,His-△237 [2],10.3 µM
